From publication PMC9347011, “Transcriptional and post-transcriptional regulation of ethylene biosynthesis by exogenous acetylsalicylic acid in kiwifruit”

Key:
Details in all cases: protein: recombinant; tags: GST (pGEX-4T-1); label: 3'-biotin
[1] = biological target: T1, AdWRKY29 (kiwifruit, UniProt A0A2R6PHX2 1-296); assay: EMSA; LightShift Chemiluminescent EMSA kit (Thermo); 3'-biotin dsDNA probes, 20- and 500-fold unlabeled competitor; buffer, salt, pH and temperature not stated
T1 sequence: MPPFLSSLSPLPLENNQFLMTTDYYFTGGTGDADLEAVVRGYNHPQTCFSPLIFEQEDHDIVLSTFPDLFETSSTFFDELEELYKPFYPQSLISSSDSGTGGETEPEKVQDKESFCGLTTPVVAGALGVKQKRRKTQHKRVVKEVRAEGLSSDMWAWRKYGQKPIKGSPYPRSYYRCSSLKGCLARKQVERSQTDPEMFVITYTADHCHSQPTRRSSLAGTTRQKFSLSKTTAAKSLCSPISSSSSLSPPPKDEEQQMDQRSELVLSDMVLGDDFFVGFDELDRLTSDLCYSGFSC

[2] = biological target: AdERF105L (kiwifruit, UniProt A0A2R6RWH8 1-269); assay: EMSA; reduced by 20- and 500-fold unlabeled probe; LightShift Chemiluminescent EMSA kit (Thermo); 3'-biotin dsDNA probes, 20- and 500-fold unlabeled competitor; buffer, salt, pH and temperature not stated
[3] = biological target: T1, AdWRKY29; assay: as above

Chain of AdERF105L (A0A2R6RWH8 entry or part of it): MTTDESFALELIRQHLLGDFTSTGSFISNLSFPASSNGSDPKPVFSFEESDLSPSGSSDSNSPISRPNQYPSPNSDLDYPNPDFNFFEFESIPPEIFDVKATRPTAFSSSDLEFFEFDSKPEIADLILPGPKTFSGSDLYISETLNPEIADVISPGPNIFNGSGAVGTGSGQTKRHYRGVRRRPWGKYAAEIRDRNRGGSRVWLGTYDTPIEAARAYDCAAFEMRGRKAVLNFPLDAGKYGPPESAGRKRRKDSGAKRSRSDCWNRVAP

B1: AdACO5 promoter W-box mutant probe (dsDNA)
DNA 1: AACAAAGTCCAGAAAAAAACTTTAATTTCC
DNA 2: GGAAATTAAAGTTTTTTTCTGGACTTTGTT
binding result [1]: no binding

B2: AdACS2 promoter DRE probe (dsDNA)
DNA 1: CTAAGATTTGCTGTCGGTATGGCTCTCAT
DNA 2: ATGAGAGCCATACCGACAGCAAATCTTAG
binding result [2]: binds

B3: AdACS1 promoter DRE probe (dsDNA)
DNA 1: CTGCGATTTGCCGTCGGTACGACTCTCATC
DNA 2: GATGAGAGTCGTACCGACGGCAAATCGCAG
binding result [2]: binds

B4: AdACO5 promoter W-box probe (dsDNA)
DNA 1: AACAAAGTCCAGTTGACCACTTTAATTTCC
DNA 2: GGAAATTAAAGTGGTCAACTGGACTTTGTT
binding result [3]: binds
